In one series the test system is liver of a WAG/Rji rat. Conditions: 400 nmol/kg i.v., five minutes post injection, WAG/Rji rat bearing CC531 colon carcinoma. As to the method: The rats were orthopically injected with 1×10^6 syngenic colon carcinoma cells (CC531 cells) 10 days prior to the measurements. At the day of measurement the rats received the peptide in a concentration of 400 nmol/kg body weight. During the experiments the rats were anaesthetised by isoflurane and kept at 37° C.

The next series is described as follows: Stability in the serum. It is filed as in vitro ADME. The conditions noted are these: 37° C., non-inactivated human serum from healthy donors, over the indicated period. As to the method:
The detection of degradation products was conducted by purification of the peptides by using HPLC affinity chromatography and subsequent radioactivity determination was performed on a gamma counter at the indicated time points. The correct mass of the radioactive peak fractions eluted from the column was confirmed by mass spectrometry (data not shown).

The text below walks through data of patent publication US10363323B2, “Hydrophobic modified peptides for liver specific diagnosis” (RUPRECHT-KARLS-UNIVERSITAT HEIDELBERG, priority 2011, dated 2019).

`CCCCCCCCCCCCCCCCCC(=O)N[C@@H](CCCCNC(=O)CN1CCN(CC(=O)O)CCN(CC(=O)O)CCN(CC(=O)O)CC1)C(=O)N[C@@H](CCCCNC(=O)CN1CCN(CC(=O)O)CCN(CC(=O)O)CCN(CC(=O)O)CC1)C(=O)N[C@@H](CCCCNC(=O)CN1CCN(CC(=O)O)CCN(CC(=O)O)CCN(CC(=O)O)CC1)C(=O)N[C@@H](CC(N)=O)C(=O)N[C@@H](CC(C)C)C(=O)N[C@@H](CO)C(=O)N[C@H](C(=O)N[C@@H](CO)C(=O)N[C@@H](CC(N)=O)C(=O)N1CCC[C@H]1C(=O)N[C@@H](CC(C)C)C(=O)NCC(=O)N[C@@H](Cc1ccccc1)C(=O)N[C@@H](Cc1ccccc1)C(=O)N1CCC[C@H]1C(=O)N[C@@H](CC(=O)O)C(=O)N[C@@H](Cc1c[nH]cn1)C(=O)N[C@@H](CCC(N)=O)C(=O)N[C@@H](CC(C)C)C(=O)N[C@@H](CC(=O)O)C(=O)N1CCC[C@H]1C(N)=O)[C@@H](C)O`: the “enrichment in the liver (PET image)” value in the series on liver of a WAG/Rji rat is given as “Specific enrichment”. Further, in the series “Stability in the serum”, the “degradation in non-inactivated human serum (HPLC, gamma counter)” value is reported as “Only radioactive decay but no cleavage was observed”.
